The record followed here is US6756229B1, “Human cell line showing stable expression of cytochromes P450” (Takeda Chemical Industries, Ltd., priority 1999, dated 2004).

Substrate in data set [1]: O=[N+]([O-])c1ccc(O)cc1
Briefly: Kinetic analysis, p-nitrophenol hydroxylase activity in Hepc/2E1.3-8. The format is cell-based, human. To be noted: other: Hepc/2E1.3-8, Lineweaver-Burk plot, 37.0 °C. The text has this:
4-Nitrocatechol purchased from Wako Junyaku K. K. was used as the standard substance.

Substrate in data set [2]: CC(=O)O[C@H]1C(=O)[C@@]2(C)[C@H]([C@H](OC(=O)c3ccccc3)[C@]3(O)C[C@H](OC(=O)[C@H](O)[C@@H](NC(=O)c4ccccc4)c4ccccc4)C(C)=C1C3(C)C)[C@]1(OC(C)=O)CO[C@@H]1C[C@@H]2O
Substrate in data set [3]: CCOc1ccc2nc3ccc(=O)cc-3oc2c1
The data set can be described thus: Kinetic analysis, 7-ethoxyresorufin O-deethylase activity in Hepc/1A1.4. The format is cell-based, human. To be noted: other: Hepc/1A1.4, Lineweaver-Burk plot, 37.0 °C. As to the method:
(§1) After 1800 μl of methanol (Wako Junyaku K. K) was added to 300 μl of the reaction solution and insoluble material was removed by centrifugation, fluorescent intensity was measured at an excited wavelength of 550 nm and a fluorescence wavelength of 586 nm using a spectrofluorometer to quantify the resorufin formed. The product purchased from Molecular Probes was used as the standard substance for resorufin (Molecular Probes).

Substrate in data set [4]: CCOc1ccc2nc3ccc(=O)cc-3oc2c1
The data set can be described thus: Kinetic analysis, 7-ethoxyresorufin O-deethylase activity in Hepc/1A2.9. It counts as cell-based, human. To be noted: other: Hepc/1A2.9, Lineweaver-Burk plot, 37.0 °C. As to the method:
as §1

B1: CYP2E1 (Homo sapiens) (protein)
chain: MSALGVTVALLVWAAFLLLVSMWRQVHSSWNLPPGPFPLPIIGNLFQLELKNIPKSFTRLAQRFGPVFTLYVGSQRMVVMHGYKAVKEALLDYKDEFSGRGDLPAFHAHRDRGIIFNNGPTWKDIRRFSLTTLRNYGMGKQGNESRIQREAHFLLEALRKTQGQPFDPTFLIGCAPCNVIADILFRKHFDYNDEKFLRLMYLFNENFHLLSTPWLQLYNNFPSFLHYLPGSHRKVIKNVAEVKEYVSERVKEHHQSLDPNCPRDLTDCLLVEMEKEKHSAERLYTMDGITVTVADLFFAGTETTSTTLRYGLLILMKYPEIEEKLHEEIDRVIGPSRIPAIKDRQEMPYMDAVVHEIQRFITLVPSNLPHEATRDTIFRGYLIPKGTVVVPTLDSVLYDNQEFPDPEKFKPEHFLNENGKFKYSDYFKPFSTGKRVCAGEGLARMELFLLLCAILQHFNLKPLVDPKDIDLSPIHIGFGCIPPRYKLCVIPRS
notes: expressed in transfected cells
For B1, in data set [1], the Km amounted to 88 µM and the Vmax amounted to 0.00012 µmol/min/mg.

B2: CYP2C8 (Homo sapiens) (protein)
chain: MEPFVVLVLCLSFMLLFSLWRQSCRRRKLPPGPTPLPIIGNMLQIDVKDICKSFTNFSKVYGPVFTVYFGMNPIVVFHGYEAVKEALIDNGEEFSGRGNSPISQRITKGLGIISSNGKRWKEIRRFSLTTLRNFGMGKRSIEDRVQEEAHCLVEELRKTKASPCDPTFILGCAPCNVICSVVFQKRFDYKDQNFLTLMKRFNENFRILNSPWIQVCNNFPLLIDCFPGTHNKVLKNVALTRSYIREKVKEHQASLDVNNPRDFIDCFLIKMEQEKDNQKSEFNIENLVGTVADLFVAGTETTSTTLRYGLLLLLKHPEVTAKVQEEIDHVIGRHRSPCMQDRSHMPYTDAVVHEIQRYSDLVPTGVPHAVTTDTKFRNYLIPKGTTIMALLTSVLHDDKEFPNPNIFDPGHFLDKNGNFKKSDYFMPFSAGKRICAGEGLARMELFLFLTTILQNFNLKSVDDLKNLNTTAVTKGIVSLPPSYQICFIPV
With B2, in data set [2], the Km was 7.4 µM and the maximal velocity (Vmax) is 9e-09 µmol/min/mg.

B3: CYP1A1 (Homo sapiens) (protein)
chain: MLFPISMSATEFLLASVIFCLVFWVIRASRPQVPKGLKNPPGPWGWPLIGHMLTLGKNPHLALSRMSQQYGDVLQIRIGSTPVVVLSGLDTIRQALVRQGDDFKGRPDLYTFTLISNGQSMSFSPDSGPVWAARRRLAQNGLKSFSIASDPASSTSCYLEEHVSKEAEVLISTLQELMAGPGHFNPYRYVVVSVTNVICAICFGRRYDHNHQELLSLVNLNNNFGEVVGSGNPADFIPILRYLPNPSLNAFKDLNEKFYSFMQKMVKEHYKTFEKGHIRDITDSLIEHCQEKQLDENANVQLSDEKIINIVLDLFGAGFDTVTTAISWSLMYLVMNPRVQRKIQEELDTVIGRSRRPRLSDRSHLPYMEAFILETFRHSSFVPFTIPHSTTRDTSLKGFYIPKGRCVFVNQWQINHDQKLWVNPSEFLPERFLTPDGAIDKVLSEKVIIFGMGKRKCIGETIARWEVFLFLAILLQRVEFSVPLGVKVDMTPIYGLTMKHACCEHFQMQLRS
notes: as for B1
As for B3, in data set [3], the Km is 0.25 µM and the Vmax came to 5.6e-05 µmol/min/mg.

B4: CYP1A2 (Homo sapiens) (protein)
chain: MALSQSVPFSATELLLASAIFCLVFWVLKGLRPRVPKGLKSPPEPWGWPLLGHVLTLGKNPHLALSRMSQRYGDVLQIRIGSTPVLVLSRLDTIRQALVRQGDDFKGRPDLYTSTLITDGQSLTFSTDSGPVWAARRRLAQNALNTFSIASDPASSSSCYLEEHVSKEAKALISRLQELMAGPGHFDPYNQVVVSVANVIGAMCFGQHFPESSDEMLSLVKNTHEFVETASSGNPLDFFPILRYLPNPALQRFKAFNQRFLWFLQKTVQEHYQDFDKNSVRDITGALFKHSKKGPRASGNLIPQEKIVNLVNDIFGAGFDTVTTAISWSLMYLVTKPEIQRKIQKELDTVIGRERRPRLSDRPQLPYLEAFILETFRHSSFLPFTIPHSTTRDTTLNGFYIPKKCCVFVNQWQVNHDPELWEDPSEFRPERFLTADGTAINKPLSEKMMLFGMGKRRCIGEVLAKWEIFLFLAILLQQLEFSVPPGVKVDLTPIYGLTMKHARCEHVQARLRFSIN
notes: as for B1
In the case of B4, in data set [4], the Km stood at 0.72 µM and the Vmax came out at 1.6e-06 µmol/min/mg.
